Reference: US20220347236A1 (GL INNOVATION, published 2022)

B1: FcεRIαECD-Fc3 (Fc fusion)
chain: VPQKPKVSLNPPWNRIFKGENVTLTCNGNNFFEVSSTKWFHNGSLSEETNSSLNIVNAKFEDSGEYKCQHQQVNESEPVYLEVFSDWLLLQASAEVVMEGQPLFLRCHGWRNWDVYKVIYYKDGEALKYWYENHNISITNATVEDSGTYYCTGKVWQLDYESEPLNITVIKAPREKYWLQAQPQAEGSLAKATTAPATTRNTGRGGEEKKGSKEKEEQEERETKTPECPSHTQPLGVFLFPPKPKDTLMISRTPEVTCVVVDVSQEDPEVQFNWYVDGVEVHNAKTKPREEQFNSTYRVVSVLTVLHQDWLNGKEYKCKVSNKGLPSSIEKTISKAKGQPREPQVYTLPPSQEEMTKNQVSLTCLVKGFYPSDIAVEWESNGQPENNYKTTPPVLDSDGSFFLYSRLTVDKSRWQEGNVFSCSVMHEALHNHYTQKSLSLSLGK
B2: FcεRIαECD-Fc3ST (Fc fusion)
chain: B1 chain
modifications: sialic acid added (α-2,6-sialic acid transferase co-expressed)
notes: Dimer; also called FcεRIαECD-Fc3 + a2,6-ST
B3: FcεRIαECD-Fc2ST (Fc fusion)
chain: VPQKPKVSLNPPWNRIFKGENVTLTCNGNNFFEVSSTKWFHNGSLSEETNSSLNIVNAKFEDSGEYKCQHQQVNESEPVYLEVFSDWLLLQASAEVVMEGQPLFLRCHGWRNWDVYKVIYYKDGEALKYWYENHNISITNATVEDSGTYYCTGKVWQLDYESEPLNITVIKAPREKYWLQRNTGRGGEEKKGSKEKEEQEERETKTPECPSHTQPLGVFLFPPKPKDTLMISRTPEVTCVVVDVSQEDPEVQFNWYVDGVEVHNAKTKPREEQFNSTYRVVSVLTVLHQDWLNGKEYKCKVSNKGLPSSIEKTISKAKGQPREPQVYTLPPSQEEMTKNQVSLTCLVKGFYPSDIAVEWESNGQPENNYKTTPPVLDSDGSFFLYSRLTVDKSRWQEGNVFSCSVMHEALHNHYTQKSLSLSLGK
modifications: sialic acid added (α-2,6-sialic acid transferase co-expressed)
notes: Homodimer; also called IgETRAP; FceR1αECD-Fc2ST
B4: FcεRIαECD-Fc2 (Fc fusion)
chain: B3 chain
notes: also called FcεRIα ECD fusion protein; polypeptide dimer

Assays:
human IgE [1] = molecular target: T1, human IgE (human, UniProt P01854-1 1-428); experiment: SPR (ProteOn XPR36), ratio of KD to that of omalizumab
T1 construct: Bought human IgE; also called human IgE (Calbiochem)
Method: (§1) The experiments were conducted by identifying zero base using 25 mM NaOH as a regeneration buffer, and then repeating the above steps. Thereafter, a binding curve was identified using a protein binding analyzer (ProteOn XPR36, Bio-Rad Laboratories, Inc., USA).

human IgE [2] = molecular target: T1, human IgE; experiment: SPR (ProteOn XPR36), ratio of ka to that of omalizumab
Method: as §1

human IgE [3] = molecular target: T1, human IgE; experiment: SPR (ProteOn XPR36), ratio of kd to that of omalizumab
Method: as §1

human IgE [4] = molecular target: T1, human IgE; experiment: SPR (ProteOn XPR36, GLC chip), IgE coated, protein flowed; KD = kd/ka
Method: as §1

human IgE [5] = molecular target: T1, human IgE; experiment: SPR (ProteOn XPR36, GLC chip), IgE coated, protein flowed at various concentrations
Method: as §1

human IgE [6] = molecular target: T1, human IgE; experiment: cell-based or functional assay
[7] = molecular target: T2, mouse IgE (anti-dinitrophenyl IgE) (mouse, UniProt P06336 1-421); experiment: cell-based or functional assay
[8] = molecular target: T2, mouse IgE (anti-dinitrophenyl IgE); experiment: cell-based or functional assay; remark: listed apart in the source
human IgE [9] = molecular target: T1, human IgE; experiment: SPR (ProteOn XPR36), human IgE
human IgE [10] = molecular target: T1, human IgE; experiment: SPR (ProteOn XPR36), ratio of KD of omalizumab to KD of IgETRAP
Method: as §1

human IgE [11] = molecular target: T1, human IgE; experiment: SPR kinetics on IgE (Table 3), omalizumab as reference; paragraph 125 ties the 69-fold end to FcεRIαECD-Fc2ST
Method: as §1

human IgE [12] = molecular target: T1, human IgE; experiment: SPR kinetics on IgE (Table 3), omalizumab as reference; paragraph 125 ties the 1.5-fold end to FceR1αECD-Fc2ST
Method: as §1

T2 sequence (P06336 whole entry): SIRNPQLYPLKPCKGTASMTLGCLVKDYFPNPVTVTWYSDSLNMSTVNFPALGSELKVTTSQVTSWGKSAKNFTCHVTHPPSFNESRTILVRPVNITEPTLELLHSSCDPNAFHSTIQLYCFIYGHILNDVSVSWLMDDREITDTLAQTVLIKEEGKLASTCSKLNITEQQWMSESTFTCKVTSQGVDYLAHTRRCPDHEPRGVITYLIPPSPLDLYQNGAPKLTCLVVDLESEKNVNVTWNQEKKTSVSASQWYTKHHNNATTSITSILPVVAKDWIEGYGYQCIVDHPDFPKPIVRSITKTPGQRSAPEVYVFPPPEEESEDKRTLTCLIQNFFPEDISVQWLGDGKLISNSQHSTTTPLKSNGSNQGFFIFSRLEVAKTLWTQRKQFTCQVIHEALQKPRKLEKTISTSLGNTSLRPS
T1 sequence (P01854 other isoform, or with tags, fused parts or gaps): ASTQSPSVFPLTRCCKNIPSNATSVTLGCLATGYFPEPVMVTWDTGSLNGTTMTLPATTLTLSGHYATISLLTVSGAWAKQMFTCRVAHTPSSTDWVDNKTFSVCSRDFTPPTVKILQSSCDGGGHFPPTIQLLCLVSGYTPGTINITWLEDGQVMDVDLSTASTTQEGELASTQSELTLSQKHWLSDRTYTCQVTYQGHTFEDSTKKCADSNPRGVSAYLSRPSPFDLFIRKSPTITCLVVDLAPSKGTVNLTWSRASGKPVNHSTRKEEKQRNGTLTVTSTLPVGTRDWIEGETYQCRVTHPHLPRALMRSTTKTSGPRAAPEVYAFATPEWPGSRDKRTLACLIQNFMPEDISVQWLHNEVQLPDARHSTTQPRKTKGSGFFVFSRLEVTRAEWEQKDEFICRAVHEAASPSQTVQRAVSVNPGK

fold of KD against omalizumab (human IgE [1]) [fold] | fold of ka against omalizumab (human IgE [2]) [fold] | fold of kd against omalizumab (human IgE [3]) [fold] | Kd (human IgE [4]) [nM] | koff (human IgE [5]) [s⁻¹] | kon (human IgE [5]) [M⁻¹ s⁻¹] | other results | Binder
22 | 2 | 45 | 0.672 | 0.000133 | 198000 |  | B1
24 | 1.7 | 40 | 0.621 | 0.000149 | 240000 |  | B2
69 | 1.5 | 106 | 0.216 | 5.69e-05 | 264000 | IC50 of mast cell inhibition (β-hexosaminidase release, human FcεRI-expressing mouse bone marrow-derived mast cells, human IgE 1 ug/mL) (human IgE [6]): ~0.0112 µg/mL; fold higher inhibitory ability on mast cell activity than Xolair (human IgE [6]): 58 fold; IC50 of inhibition of degranulation of mouse bone marrow-derived mast cells (β-hexosaminidase release) in the presence of 1 µg/ml mouse IgE [7]: 0.45 µg/mL; Average inhibition ratio (%) of mast cell degranulation at IgETRAP 0.016 ug/mL (0.11 nM; IgE/IgETRAP molar ratio 47.8), anti-DNP IgE 1 ug/mL [8]: 2.12%; Average inhibition ratio (%) of mast cell degranulation at IgETRAP 0.063 ug/mL (0.42 nM; IgE/IgETRAP molar ratio 12.5), anti-DNP IgE 1 ug/mL [8]: 12.4%; Average inhibition ratio (%) of mast cell degranulation at IgETRAP 0.25 ug/mL (1.67 nM; IgE/IgETRAP molar ratio 3.15), anti-DNP IgE 1 ug/mL [8]: 13.8%; Average inhibition ratio (%) of mast cell degranulation at IgETRAP 0.5 ug/mL (3.33 nM; IgE/IgETRAP molar ratio 1.58), anti-DNP IgE 1 ug/mL [8]: 49.4%; Average inhibition ratio (%) of mast cell degranulation at IgETRAP 1 ug/mL (6.67 nM; IgE/IgETRAP molar ratio 0.79), anti-DNP IgE 1 ug/mL [8]: 99.3%; Average inhibition ratio (%) of mast cell degranulation at IgETRAP 2 ug/mL (13.3 nM; IgE/IgETRAP molar ratio 0.40), anti-DNP IgE 1 ug/mL [8]: 99.4%; Average inhibition ratio (%) of mast cell degranulation at IgETRAP 4 ug/mL (26.7 nM; IgE/IgETRAP molar ratio 0.20), anti-DNP IgE 1 ug/mL [8]: 99.8%; Kd (human IgE [9]): 0.215 nM; koff (human IgE [9]): 5.69e-05 s⁻¹; kon (human IgE [9]): 264000 M⁻¹ s⁻¹; fold of dissociation rate (Kd) against omalizumab (human IgE [3]): ~94.5 fold; Comparison of KD [Omalizumab/IgETRAP] (human IgE [10]): ~69 fold; fold change of equilibrium dissociation constant (KD) against omalizumab (printed 'higher'; meant as stronger binding) (human IgE [11]): 22 to 69 fold; fold lower association rate (ka) than omalizumab (human IgE [12]): 1.5 to 2 fold | B3
38 | 1.9 | 73 | 0.388 | 8.29e-05 | 214000 |  | B4
